From patent US12077607B2, “Functional and therapeutic effects of PAR4 cleavage by cathepsin G” (UNIVERSITY OF UTAH RESEARCH FOUNDATION, priority 2021, dated 2024)
Substitutions are numbered along the chain they refer to. Entries after “also recorded” stand apart in the source; their conditions may differ.

Legend:
[1] = biological target: T1, PAR4-B (SEQ ID NO: 7) (Homo sapiens, UniProt Q96RI0); test: PAR4 peptide cleavage analysis by LC-MS/MS, PAR4-B; assay type: biochemical; conditions: thrombin 100 U/mL or 100 nM, CatG 400 nM, 37° C.
T1 construct: purchased BIOMATIK (Wilmington, DE, USA); host or cells: chemical synthesis
Description: PAR-4 Peptide and Cleavage Analysis. PAR4 synthetic peptides were incubated with protease, snapped frozen, and sent for mass spectrometry analysis. PAR-4B ([…]; SEQ ID NO: 7) and PAR-4C ([…]; SEQ ID NO: 8) were synthesized by BIOMATIK (Wilmington, DE, USA). PAR4-B and PAR4-C were incubated with vehicle, thrombin (100 nM) or cathepsin G (400 nM) at 37° C. for 15 minutes to an hour depending on the experimental condition. After digestion with the indicated protease, reactions were snapped frozen and sent to the University of Arizona, Analytical and Biological Mass Spectrometry Core Facility (Tucson, Arizona) for analysis. LC-MS/MS analysis was done on a Q Exactive Plus mass spectrometer (Thermo Fisher Scientific, San Jose, CA) equipped with an EASY-Spray nanoESI source. Peptides (500 ng) were injected onto an Acclaim Pepmap 100 trap column (75 micron ID x 2 cm, Thermo Scientific), washed for 10 min at 3% mobile phase B (acetonitrile, 0.1% formic acid, mobile phase A consisting of water and 0.1% formic acid) then eluted onto an Acclaim PepMap RSLC analytical column (75 micron ID x 25 cm, Thermo Scientific using a 3-20% gradient of B over 40 min, 20-50% solvent B over 5 min, 50-95% of solvent B over 5 min, then a hold of solvent 95% B for 10 min, and finally a return to 3% solvent B for 1 min, then a hold at 3% B for 10 min. Flow rates were 300 nL/min using a Dionex Ultimate 3000 RSLCnano System (Thermo Scientific). […] The peptide identification results were further analyzed with Scaffold Q+S v 4.8.7 (Proteome Software Inc., Portland OR), a program that relies on various search engine results (i.e.: Sequest, X!Tandem, MASCOT) and which uses Bayesian statistics to reliably identify more spectra9.

[2] = biological target: T2, PAR4-S67E (Homo sapiens, UniProt Q96RI0, S67E); test: PAR4 mutant calcium flux assay, HEK293T/17 cells, S67E; assay type: cell-based; conditions: 100 nM vorapaxar
T2 construct: Flag; expressed in transfected cells; host or cells: HEK293T/17 (ATCC CRL-11268)
T2 sequence (Q96RI0 18-385 S67E): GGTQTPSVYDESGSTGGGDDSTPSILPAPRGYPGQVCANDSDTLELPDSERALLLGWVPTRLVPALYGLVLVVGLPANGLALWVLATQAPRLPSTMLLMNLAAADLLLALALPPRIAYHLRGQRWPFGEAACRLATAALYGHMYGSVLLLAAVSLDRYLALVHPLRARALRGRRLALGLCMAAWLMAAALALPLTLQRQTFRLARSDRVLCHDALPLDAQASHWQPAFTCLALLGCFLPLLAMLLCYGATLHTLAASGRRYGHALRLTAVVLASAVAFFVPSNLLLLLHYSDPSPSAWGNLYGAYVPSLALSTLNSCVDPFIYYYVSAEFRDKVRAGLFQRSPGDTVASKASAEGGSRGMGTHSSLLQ
Description: (§1) PAR4 mutant calcium flux assays. Using Quikchange Lightning Site-Directed mutagenesis (Agilent) per manufacturing instructions, pCMV-Flag-PAR4-S66E, pCMV-Flag-PAR4-S67E, and pCMV-Flag-PAR4-R68E were generated from mutation of pCMV-Flag-PAR4 and confirmed by sequencing (University of Utah DNA Sequencing Core). Prior to transfection, HEK293T/17 cells (ATCC CRL-11268) were seeded at 4.5×10^4/mL. The following day, cells were transfected with the plasmid of interest using Lipofectamine 2000 (Invitrogen, Carlsbad, CA, USA). Twenty-four hours after transfection, media was removed and replaced with Optimem w/Glutamax (Gibco, Carlsbad, CA, USA) containing vorapaxar (100 nM) (Cayman Chemical, Ann Arbor, MI, USA) and Fura2-QBT (Molecular Devices). Following incubation for 1 hour at 37° C., plate was placed in the Flexstation 3 (Molecular Devices) where agonists, Tyrode's Buffer, cathepsin G (2.5 μM), or α-thrombin (1.5 U/mL), were injected onto cells and calcium mobilization was monitored and recorded.

[3] = biological target: T3, WT human PAR4 (hPAR4) (Homo sapiens, UniProt Q96RI0); test: PAR4 calcium flux assay in HEK293T/17 cells expressing WT PAR4; assay type: cell-based; conditions: CatG 2.5 μM; 100 nM vorapaxar
T3 construct: Flag; expressed in transfected cells; host or cells: HEK293T/17 (ATCC CRL-11268)
T3 sequence (Q96RI0 18-385): T2 sequence (Q96RI0 18-385 S67E) with E50S
Description: PAR4 calcium flux assays. PAR4-dependent calcium flux was measured using Fura2-QBT in platelets and HEK293T/17 cells with wild-type (WT) and mutant PAR4 (Tourdot et al., Arterioscler Thromb Vasc Biol. 2014; 34(12):2644-2650).
as §1

Row | Substance | cleavage of PAR4-B peptide [1] | CatG-induced calcium flux, S67E mutant compared with WT ([2]; CatG 2.5 μM, P<0.001) | CatG-induced calcium flux, WT PAR4 compared with mock transfection [3] | cleavage of PAR4-B peptide ([1]; listed as Thrombin) | thrombin-induced calcium flux, S67E mutant compared with WT ([2]; thrombin 1.5 U/mL)
1 | CatG: serine protease cathepsin G released by activated neutrophils | largely intact; also recorded: little cleavage | significantly less calcium flux than WT | increased calcium flux |  | 
2 | thrombin | cleaved by thrombin between amino acids Arg47 and Gly48 |  |  | proteolyzed virtually all | None of the PAR4 mutants were significantly different than WT
